What was measured:
[1] = system: human skin explants or xenograted human skin; experiment: Confocal imaging of fluorescent dye distribution in ETA-desquamated skin (Example 2); conditions: for skin permeability after removal of S.C. by ETA: ETA 100 μg/mL treated vs untreated skin
Description: Human skin samples were fixed in 10% formaldehyde overnight and then embedded in paraffin. Samples were cut using a microtome to a thickness of 6 μM and baked on slides for 1 hour in a dry heat incubator at 58° C. Nuclei and eosinophillic structures were visualized by hematoxylin and eosin staining, respectively. The hematoxylin stains nuclei blue and eosins stains eosinophillic structures different shades of red. Histological images were taken with an inverted microscope.
The skin was either subjected to no treatment or application of ETA at 100 μg/mL.
To image the distribution of each dye in the human skin, human skin specimens were collected at 6, 12, 18 and 24 hours. Ordinary skin with intact S.C. and desquamated skin using ETA (methods previously described) were used. Frozen sections of human skin specimens were cut using a microtome to a thickness of 7 μM and DAPI was used for counter staining. Skin imaging was carried out at room temperature using Nikon confocal microscope equipped with NIS-Elements AR 3.10 software.

human skin explants [2] = conditions: cited from earlier work
human skin = experiment: Franz cell diffusion apparatus assay, ETA-treated vs control skin (Example 3); type: in vitro ADME; conditions: ETA-treated human skin compared to non-treated control, 24 hours
Description: Permeation experiments with Franz diffusion cells were performed using human skin. The Franz diffusion cells were made of glass with a contact area of 1.35 cm^2, consisting of a donor compartment and a receptor compartment. The skin was mounted between the cell compartments and 2 O-ring shaped glasses were used to position the skin epidermis side-up and dermis side-down. The two cell compartments were held together with a clamp. […] It was kept at 37° C. on a heated plate. After 30 minutes of equilibration of the skin with the receptor solution, 200 μl of the drug solution was applied in the donor compartment with a pipet. The donor compartment was then covered with parafilm to prevent evaporation of the solvent. The receptor solution was continuously stirred using a spinning bar magnet at 200 rpm. Receptor solution samples, 0.2 ml aliquots, were withdrawn through the sampling port of the receptor compartment at various time intervals. The cells were refilled with a same amount of receptor solution to keep the volume of receptor solution constant during the experiment. The experiments were run for 24 hours. The fluorescent intensities collected from receptor compartments from normal and desquamated skin were compared over time using a spectrophotometer. […]

[3] = system: skin epidermis and dermis; experiment: Removal of S.C. by various methods and possible damage (FIG. 12)
Text: FIGS. 12A (panel a-d) and 12B depict removal of S.C. by various methods and possible damage. […] Even more damage to the dermis and epidermis are seen in skin treated by dermabrasion (panel d). In FIG. 12A, single headed arrow points to the epidermis and double headed arrows show clefting between epidermis and dermis.
Fractional laser treatment lead to unavoidable heat damage on the side of the holds that each radiated beam made.

[4] = system: Stratum Corneum, human skin explant model; experiment: ETA desquamation after acetone and/or thioglycolate cream pre-treatment (Example 4)
Text: FIG. 7 panels a-d depict decreased desquamation time for the removal of S.C. by ETA on the human skin specimen(s) following thioglycolate cream pre-treatment. Samples either received no treatment (panel a), ETA only (panel b), treated with thioglycolate cream only (panel c), ETA and thioglycolate cream (panel d). The depictions are of live confocal imaging of skin. Images are focusing on the horizontal plane at the most superficial levels. Lighter areas depict areas where DAPI dye has entered the epidermis and staining on the Nuclei of the cells. […] Natural folds in skin surface produce “waves” of staining in these planar-focused live images. The waves of staining are seen in panel b, with about 20%-30% of the area stained, and about 90%-95% of the area stained in panel d (“unstained” regions in panel d are skin folds). However when S.C. is present (panels a and c), DAPI cannot penetrate cells, and is shielded from cellular uptake by the S.C., staining is seen to be less than about 10% in panels a and c.
In order to decrease the incubation time of ETA, the following conditions were additionally evaluated:
Studies were carried out in a human skin explant model using surgical abdominal skin specimens.
Lipid Extraction: The S.C. layer consists of lipids and therefore, acetone was selected as a pre-treatment to dissolve or at least disrupt the lipid structure of the S.C.
Protein Denaturation: The S.C. layer also contains keratin proteins. Keratins can be broken down by thioglycolate, which breaks down rigid disulfide bonds. Samples were pre-treated with thioglycolate cream to break down the keratin layer of the S.C. As a result, the incubation time of ETA was shortened (FIG. 7).
Combination Lipid Extraction and Protein Denaturation: With the pre-treatment of acetone and a thioglycolate cream, separation of S.C. started as early as 2 to 2.5 hours.

[5] = system: xenograft human skin in SCID mice; experiment: Recovery of S.C. after ETA, serial confocal DAPI staining; type: in vivo
Text: FIG. 11 panels a-i depict DAPI staining on nuclei in an S.C. removed area compared to control (intact S.C.), highlighting the recovery of the S.C. layer over time after the application of ETA on human xenografted skin on mice. […] Day 7-9 and 10-11 (panels e, f) show even less nuclei.
Regarding healing kinetics, using a xenograft human skin in SCID mice model, the healing of removed S.C. was completed within 2 weeks as determined by serial confocal observation of DAPI staining on xenograft skin. With confocal microscope and DAPI staining, the recovery of the S.C. can be observed, as described. DAPI is known to be a fluorescent stain that can pass through the cell membrane and bind strongly to A-T rich regions in DNA, thereby staining the nuclei of cells. With intact S.C., the signal from DAPI cannot be detected by confocal microscope due to the refraction of light against the S.C. as well as the limitation of the depth of light penetration. On the other hand, desquamated skin can produce DAPI signals within cells. DAPI can stain the nuclei of epidermis as long as epidermis remains desquamated. Under inhalation anesthesia, xenografted mouse was taped down on the observatory plates and the xenografted skin was imaged using confocal microscopy. DAPI signal was obtained at baseline and every other day after ETA-mediated desquamation occurred.

[6] = system: Stratum Corneum of human skin explants; experiment: ETA desquamation of Stratum Corneum on human skin explants, H&E histology (Example 1)
Description: ETA was mixed with 10 mM PIPES at pH 6.5, 10 mM HEPES at pH 7.4, or 10 mM Tris at pH 8.0, at concentrations ranging from 25-1000 μg/mL. Each condition was also done separately as controls. These solutions were applied to human skin explants, obtained and prepared as follows. Human skin specimens were obtained from consenting patients undergoing abdominoplasty. Under a sterile condition, the tissue was placed and washed in a 70% ethanol solution and cold PBS. Fat layers were removed from the tissue, leaving a millimeter of dermis and an intact epidermis. The tissue was then cut into 10 mm×10 mm pieces and placed on gels composed of keratinocyte media supplemented with Human Keratinocyte Growth Supplement purchased from Invitrogen, and mixed in a 1:1 ratio with 2% agarose. The samples were stored at 37° C. in 5% CO2.
ETA solutions were incubated on top of the skin for 4 hours. Each buffer condition was also done separately without the presence of ETA as controls. […] That is to say, Stratum Corneum layer was peeled off mechanically with sterile gauze.
Histological images were taken with an inverted microscope.

human skin explants [7] = experiment: Injected versus topically applied ETA, damage after 24 hours (Example 6)
Description: FIG. 10 panels a-h depict the effect of injected and topically applied ETA in a series of concentrations between 5 and 1000 ug/mL after 24 hours.
Damage caused by intra-dermal injection of ETA was compared to normal control skin and topically applied ETA control. A very high concentration of ETA (500 μg/mL) was intra-dermally injected into human skin explants (prepared as described in Example 1) and observed after 24 hours. […] In contrast, methods of the invention topically apply ETA only to the outside surface of skin.

[8] = intra-dermally injected, ETA 500 μg/mL, 24 hours

CCNc1cc2[s+]c3cc(N(CC)CC)ccc3nc2c2ccccc12.[Cl-] [EtNBS]
skin permeability after removal of S.C. by ETA [1]: substantially increased
penetration of the dye at 12 hours ([1]; toxin treated skin): penetrating past the epidermis
penetration of the dye at 24 hours ([1]; toxin treated skin): penetrated further

C=C[C@@]1(C)CC(=O)[C@]2(O)[C@@]3(C)[C@@H](O)CCC(C)(C)[C@@H]3[C@H](O)[C@H](OC(C)=O)[C@@]2(C)O1 [Forskolin]
penetration of intact human skin (human skin explants [2]): cannot, however, penetrate intact human skin

CCN(CC)c1ccc2c(-c3ccc(S(=O)(=O)O)cc3S(=O)(=O)[O-])c3ccc(=[N+](CC)CC)cc-3oc2c1 [Sulforhodamine, sulforhodamine B]
skin permeability, fluorescence in receptor compartment (human skin): increase in skin permeability

O=C1OC2(c3ccc(O)cc3Oc3cc(O)ccc32)c2ccccc21 [fluorescein]
skin permeability, fluorescence in receptor compartment (human skin): increase in skin permeability

O=C(O)CO [glycololic acid, glycolic acid]
epidermal or dermal injury ([3]; 20% for 1-3 minutes): epidermal damage and clefting of the dermal-epidermal junction (DEJ)
injury by chemical peeling [3]: uncontrolled or unavoidable additional injury to epidermis

O=C(O)c1ccccc1O [salicylic acid]
injury by chemical peeling [3]: uncontrolled or unavoidable additional injury to epidermis
epidermal or dermal injury ([3]; topical 30%): damage to the epidermis

human recombinant insulin: FITC tagged human recombinant insulin (5000 Da)
skin permeability after removal of S.C. by ETA [1]: substantially increased
time to penetration of the dye ([1]; toxin treated skin): ≤ 6 h
penetration of the dye at 12 hours ([1]; toxin treated skin): some dye penetration
penetration of the dye at 24 hours ([1]; toxin treated skin): extensively into the dermis
penetration of the dye at 24 hours ([1]; toxin treated skin, listed as FITC-insulin): deep penetration of the dye

B1: ETA: protease that cleaves the extracellular portion of desmoglein-1 (Dsg1); Staphylococcus aureus, SEQ ID NO: 01/02 (protein, listed as Staphylococcus aureus)
chain: MNNSKIISKVLLSLSLFTVGASAFVIQDELMQKNHAKAEVSAEEIKKHEEKWNKYYGVNAFNLPKELFSKVDEKDRQKYPYNTIGNVFVKGQTSATGVLIGKNTVLTNRHIAKFANGDPSKVSFRPSINTDDNGNTETPYGEYEVKEILQEPFGAGVDLALIRLKPDQNGVSLGDKISPAKIGTSNDLKDGDKLELIGYPFDHKVNQMHRSEIELTTLSRGLRYYGFTSVPGNSGSGIFNSNGELVGIHSSKVSHLDREHQINYGVGIGNY
incubation usually expected ([4]; ETA 50 μg/mL, without pre-treatment): 4 to 8 h
area stained by DAPI (FIG. 7 panel d) ([4]; ETA and thioglycolate cream): 90%-95%
area stained by DAPI (FIG. 7 panel b) ([4]; ETA only): 20%-30%
change of reaction time after ETA application ([4]; acetone pre-treatment): slight decrease in reaction time
time at which separation of S.C. started ([4]; pre-treatment of acetone and a thioglycolate cream): 2 to 2.5 h
time of almost complete removal of S.C. ([4]; pre-treatment of acetone and a thioglycolate cream, ETA 50 μg/mL): 3 h
change of incubation time of ETA ([4]; thioglycolate cream pre-treatment): shortened
DAPI staining of nuclei ([5]; Day 12 after ETA): no nuclei
DAPI staining of nuclei ([5]; Days 1-3 after ETA): significant DAPI staining
time to completed healing of removed S.C. ([5]; after ETA-mediated desquamation): ≤ 2 weeks
re-formation of intact Stratum Corneum complete ([5]; after application of ETA): ≤ 15 days
effect of buffer on desquamation speed ([6]; 10 mM Tris buffer pH 8.0): no effect
time to remove the S.C. ([6]; ETA 50 μg/mL): ≤ 12 h
S.C. removal, histology (FIG. 1 panel d) ([6]; ETA 50 μg/mL, serial time points up to 12 hours): sub-corneal cleavage and the complete removal of the S.C.
incubation time at which efficacy was achieved ([6]; ETA 1000 μg/mL, buffered pH 6.5 solution): about 3 hours
time to desquamation of the Stratum Corneum ([6]; ETA between 5 and 25 μg/mL, topical): ≤ 24 h
damage to the rest of the epidermis or the dermis ([6]; ETA between 5 and 25 μg/mL, within 24 hours): without damaging the rest of the epidermis or the dermis
time to completely remove the S.C. ([6]; pH 6.5): 4 h
desquamation (FIG. 2 panel d) ([6]; pH 6.5 PIPES buffer, 4 hours): total desquamation
desquamation (FIG. 2 panel b) ([6]; pH 7.4 HEPES buffer, 4 hours): some desquamation
damage to the epidermis or underlying dermis (human skin explants [7]; [8]): no serious damage
exfoliation (human skin explants [7]; [8]): more wide spread exfoliation
histological effect (human skin explants [7]; intradermal injection, ETA 5 μg/mL, 24 hours): desquamation
histological effect (human skin explants [7]; intradermal injection, ETA 50 μg/mL, 24 hours): desquamation
histological effect (human skin explants [7]; intradermal injection, ETA 500 μg/mL, 24 hours): clefting at the dermal-epidermal junction (DEJ)
histological effect (human skin explants [7]; intradermal injection, ETA 1000 μg/mL, 24 hours): clefting at the dermal-epidermal junction (DEJ)
effect compared with intra-dermal injection (human skin explants [7]; topical ETA 50 μg/mL for 24 hours): much more modest effect
histological effect (human skin explants [7]; topical application, ETA 5 μg/mL, 24 hours): no change
histological effect (human skin explants [7]; topical application, ETA 50 μg/mL, 24 hours): desquamation
histological effect (human skin explants [7]; topical application, ETA 500 μg/mL, 24 hours): desquamation
histological effect (human skin explants [7]; topical application, ETA 1000 μg/mL, 24 hours): desquamation
epidermal or dermal injury ([3]; controlled removal of S.C. using ETA): no epidermal or dermal injury

From patent US11045520B2, “Compositions and methods for topical delivery of pharmaceutical agents” (priority 2016, dated 2021)
